Paper PMC11645250
Like-named read-outs stand apart in the source and are kept apart here.

Experiments:
[1] = molecular target: IBDV VP3 D1–D2–D3 construct (residues 1–221) (infectious bursal disease virus (IBDV)); experiment: SEC-MALS
[2] = molecular target: IBDV VP3 D1–D2–D3 construct (residues 1–221) (infectious bursal disease virus (IBDV)); experiment: cross-linking
[3] = molecular target: IBDV VP3 D1–D2–D3 construct (residues 1–221) (infectious bursal disease virus (IBDV)); experiment: cross-linking; remark: listed apart in the source
[4] = molecular target: IBDV VP3 D1–D2–D3 construct (residues 1–221) (infectious bursal disease virus (IBDV)); experiment: SAXS
[5] = molecular target: IBDV VP3 central domains construct (residues 89–221, D2–D3) (infectious bursal disease virus (IBDV)); experiment: cross-linking
[6] = molecular target: IBDV VP3 N-terminal construct (residues 1–81, D1 domain) (infectious bursal disease virus (IBDV)); experiment: SEC-MALS
[7] = molecular target: IBDV VP3 N-terminal construct (residues 1–81, D1 domain) (infectious bursal disease virus (IBDV)); experiment: cross-linking
[8] = molecular target: IBDV VP3 N-terminal construct (residues 1–81, D1 domain) (infectious bursal disease virus (IBDV)); experiment: SAXS
VP3 1-81 (D1) = molecular target: T1, VP3 1-81 (D1) (Infectious bursal disease virus (Soroa …, UniProt Q9WI42 756-836)); experiment: EMSA
T1 sequence: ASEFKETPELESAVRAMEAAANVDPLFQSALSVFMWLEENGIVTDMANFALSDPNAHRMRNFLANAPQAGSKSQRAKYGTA

“IBDV VP3 D1–D2–D3 construct (residues 1–221) (domain or fragment)” gave a % of total sample in the predominant (dimer) peak [1] of 98.8%, a stoichiometry N [1] of 2 and a % of protein in dimers and higher MW species after BS3 cross-linking [2] of 93.2%. For the same molecule, the % of protein in dimers and higher MW species after BS3 cross-linking [3] was 93.3% and the stoichiometry N [4] was 2.

“IBDV VP3 central domains construct (residues 89–221, D2–D3) (domain or fragment)” gave a % dimerization/oligomerization after BS3 cross-linking [5] of 43.5%.

With “IBDV VP3 N-terminal construct (residues 1–81, D1 domain) (domain or fragment)” the stoichiometry N [6] was 2, the % of the band in the dimeric form after BS3 cross-linking [7] was 96.9% and the stoichiometry N [8] was 2.

B1: 28 bp dsRNA (dsRNA)
RNA 1: AGAACCUGUUGAACAAAAGCCGAAUAAU
RNA 2: AUUAUUCGGCUUUUGUUCAACAGGUUCU
B1: no binding (VP3 1-81 (D1)).
